The test has as its target T1, human GPRC5D (UniProt Q9NZD1 1-345).
T1 chain: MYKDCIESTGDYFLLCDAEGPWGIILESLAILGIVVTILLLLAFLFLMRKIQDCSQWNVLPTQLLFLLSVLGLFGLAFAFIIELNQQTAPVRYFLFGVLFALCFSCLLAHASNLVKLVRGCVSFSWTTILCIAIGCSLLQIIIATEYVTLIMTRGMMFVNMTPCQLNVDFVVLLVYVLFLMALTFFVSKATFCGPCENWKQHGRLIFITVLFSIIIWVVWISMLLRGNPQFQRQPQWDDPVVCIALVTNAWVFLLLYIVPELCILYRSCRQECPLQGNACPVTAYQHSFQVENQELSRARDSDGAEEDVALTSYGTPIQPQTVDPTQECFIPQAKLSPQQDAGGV
The experiment in a line: FACS cell binding; MM.1R cells.

The source of these data is patent US20180037651A1 (published 2018).

B1: GC5B599 (antibody, V domains shown)
VH: EVQLVQSGAEVKKPGESLKISCKGSGYSFTSYFIGWVRQMPGKGLEWMGIIYPGKSDTRYSPSFQGQVTISADKSISTAYLQWSSLKASDTAMYYCARVYSFGGRHKALFDYWGQGTLVTVSS
VL: EIVLTQSPATLSLSPGERATLSCRASQSVSSYLAWYQQKPGQAPRLLIYDASNRATGIPARFSGSGSGTDFTLTISSLEPEDFAVYYCQQRSNWPLTFGQGTKVEIK
The molecule B1 had an EC50 of 0.1 nM.

B2: GC5B603 (antibody, V domains shown)
VH: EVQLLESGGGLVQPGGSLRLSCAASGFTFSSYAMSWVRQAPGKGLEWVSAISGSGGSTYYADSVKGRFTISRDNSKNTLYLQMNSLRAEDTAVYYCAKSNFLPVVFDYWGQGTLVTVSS
VL: EIVLTQSPATLSLSPGERATLSCRASQSVRKSLAWYQQKPGQAPRLLIYTASNRATGIPARFSGSGSGTDFTLTISSLEPEDFAVYYCQQYFRAPITFGQGTKVEIKK
B2: the EC50 was found to be 1.67 nM.

The term EC50 denotes the midpoint of the concentration-response curve. Lower therefore signals a more potent agent.
